This passage reports protein stability index results from the supplement of paper PMC10567573.

A short description of this data set: protein stability index of a GFP-peptide fusion (GPS, HEK-293T) (PSI 1-6); higher = more stable. The conditions noted are these: c terminus: a fixed tail appended.

± gives the standard deviation.
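Also: 24-mer peptide tiles fused after GFP, lentivirally expressed, FACS-sorted into six equal bins by GFP/DsRed ratio, decoded by Illumina sequencing, PSI is the read-weighted mean bin number.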

For the sequence NVTNLEGGPGRQTTSPNVLWPTPG [ESR2], the protein stability index is, setting by setting: (treatment: DMSO) 3.17 ± 0.35; (treatment: MLN4924 1 uM, 8 h) 3.17 ± 0.37.
For NSKPCISLNGPLSTSRHVMAPVMA [ADAMTS4], in that order: 2.83 ± 0.39 and 3.12 ± 0.19.
Regarding KKHKNSQLDKNSEVYQEVQAMFDT [FAM98B], the protein stability index runs as follows: (treatment: DMSO) 4.31 ± 0.39; (treatment: MLN4924 1 uM, 8 h) 4.27 ± 0.35.
VGYGDMHPVTIGGKIVGSLCAIAG [KCNA3] had a protein stability index (treatment: DMSO) of 2.67 ± 0.11 and a protein stability index (treatment: MLN4924 1 uM, 8 h) of 2.26 ± 0.35.
Taken in the same sequence, the figures for VGSLPVIVVGRLKVALEPQLWELG [LPCAT4] were 2.74 ± 0.036 and 2.88 ± 0.6.
For IQYEMEYTEGISQRMRVPEKLKVA [MFF], in that order: 2.98 ± 0.28 and 3.08 ± 0.64.
For PPRIPQADQWKSSNKSLVEALGLE [RHOBTB1], the protein stability index is 4.45 ± 0.27 (treatment: DMSO) and 4.33 ± 0.26 (treatment: MLN4924 1 uM, 8 h).
Taken in the same sequence, the figures for SIVIFCLETLPEFRDEKDYPASTS [KCNA3] were 2.4 ± 0.54 and 2.19 ± 0.45.
For LRMLEYEPAARISPLGALQHGFFR [DYRK1B], in that order: 2.51 ± 0.2 and 2.61 ± 0.33.
Taken in the same sequence, the figures for EALAVLEPYARLPPHKHVARPTEV [TRIB3] were 2.72 ± 0.36 and 2.77 ± 0.2.
SKVVVPPLPGKAFLRQLPFRGDDG [SNX3] showed a protein stability index (treatment: DMSO) of 3.45 ± 0.17 and a protein stability index (treatment: MLN4924 1 uM, 8 h) of 3.56 ± 0.21.
In the case of GGGSGSAPGPSRIADYLLLPLAER [TRIB1], where the note is “treatment: DMSO”, the protein stability index is 3.62 ± 0.48.
Regarding GDSHYEIEIVHISTVQILTEGFPP [ZFYVE21], the protein stability index reads like this: (treatment: DMSO) 2.71 ± 0.8; (treatment: MLN4924 1 uM, 8 h) 2.85 ± 0.78.
Taken in the same sequence, the figures for GKVKLQQNPGKFDELDMSPGDPKW [TBC1D10A] were 4.51 ± 0.32 and 4.83 ± 0.23.
For TFIVSCKFSPDGKYVVSGFDVDHG [WDR88], in that order: 2.79 ± 0.39 and 2.81 ± 0.53.
Take FEQGKWDVFSENLLADVKGARAAL [STX11]: the protein stability index reads like this: (treatment: DMSO) 2.67 ± 0.14; (treatment: MLN4924 1 uM, 8 h) 2.72 ± 0.45.
For SARDASPTPSTDAEYPANGSGADR [NCK2], in that order: 5.51 ± 0.17 and 5.53 ± 0.25.
As to SGLLEELNAEAGHLDPGFLASDKT [C18orf25], the protein stability index runs as follows: (treatment: DMSO) 4.96 ± 0.18; (treatment: MLN4924 1 uM, 8 h) 4.76 ± 0.12.
Taken in the same sequence, the figures for VQRLTSRAARDYKIQNHGHRVLQR [FCHSD1] were 3.33 ± 0.08 and 3.44 ± 0.1.
As to EKAAALERQLKVMASDHREALLDR [LRRC45], the protein stability index was 4.41 ± 0.17 (treatment: DMSO) and 4.49 ± 0.46 (treatment: MLN4924 1 uM, 8 h).
Turning to DGIPQVYYFGPCGKYNAMVLELLG [CSNK1G3], the protein stability index was found to be 2.31 ± 0.58 (treatment: DMSO) and 2.27 ± 0.43 (treatment: MLN4924 1 uM, 8 h).
CVQCKMPVCYQCLEEGKHSSHEVK [TRIM9]: the protein stability index stood at 4.08 ± 0.44 (treatment: DMSO) and 4.19 ± 0.45 (treatment: MLN4924 1 uM, 8 h).
Take KPQAPQKLDPTLSSCFFIESCGAQ: the protein stability index by setting is: (treatment: DMSO) 3.35 ± 0.28; (treatment: MLN4924 1 uM, 8 h) 3.15 ± 0.21.
With PDRASGPEGSLSQTMAGSSPNTPQ [FAM104A], the protein stability index reads like this: (treatment: DMSO) 5.3 ± 0.21; (treatment: MLN4924 1 uM, 8 h) 5.34 ± 0.2.
For GPDVLETDGLQEVPLCSCRMETPK [EHMT1], in that order: 4.16 ± 0.43 and 4.29 ± 0.29.
Taken in the same sequence, the figures for LNVDAAVQQWLQKGTPASKLILGM [CHIT1] were 2.21 ± 0.36 and 2.25 ± 0.39.
QKLADLRSLNEEHSKQYRCLSFQP [VDR]: the protein stability index was found to be 3.07 ± 0.12 (treatment: DMSO) and 3.24 ± 0.17 (treatment: MLN4924 1 uM, 8 h).
In the case of DNAPAVLHPRPDWEHSAPQRLPRS [PCDHGC5], the protein stability index came to 4.72 ± 0.17 (treatment: DMSO) and 4.81 ± 0.17 (treatment: MLN4924 1 uM, 8 h).
For LNYTYKRFEGLTQRGSIPTYMKAG [STK38L], in that order: 2.5 ± 0.18 and 2.67 ± 0.22.
For FDDEEPRKFYVHIKPAPARAPACS [FCHO1], in that order: 3.27 ± 0.14 and 3.29 ± 0.38.
On to FSTQYRCFSVSMLAGPNDRSDVEK [UFD1], for which the protein stability index runs as follows: (treatment: DMSO) 2.68 ± 0.39; (treatment: MLN4924 1 uM, 8 h) 3.01 ± 0.57.
As to STLPRSGSSGGQQPSGMKEGVKRY [CHCHD6], the protein stability index turned out to be 4.49 ± 0.35 (treatment: DMSO) and 4.8 ± 0.29 (treatment: MLN4924 1 uM, 8 h).
With MSSPSSPFREQSFLCAAGDAGEES [TIAF1], the protein stability index stood at 5.34 ± 0.18 (treatment: DMSO) and 5.32 ± 0.17 (treatment: MLN4924 1 uM, 8 h).
Taken in the same sequence, the figures for EIENVKKQASNLETAIADAEQRGD [KRT71] were 5.29 ± 0.49 and 5.42 ± 0.3.
Taken in the same sequence, the figures for CRLKKCFRAGMKKEAVQNERDRIS [HNF4A] were 3.22 ± 0.27 and 3.44 ± 0.25.
Taken in the same sequence, the figures for KPYECNECGKAFSQSSYLSQHRRI [ZNF232] were 2.32 ± 0.073 and 2.44 ± 0.32.
Take APPGSLVTKVTAVDADAGHNAWLS [PCDHGC5]: the protein stability index came to 3.848 ± 0.025 (treatment: DMSO) and 4 ± 0.19 (treatment: MLN4924 1 uM, 8 h).
For TYMSADDLRINLWNFEITNQSFNI [PPP2R2B], in that order: 2.43 ± 0.66 and 2.53 ± 0.3.
Consider FRVNCYPGIDIREDLAQKLNLEED [HESX1], for which the protein stability index is 3.52 ± 0.34 (treatment: DMSO) and 3.69 ± 0.35 (treatment: MLN4924 1 uM, 8 h).
With LFGGEFEDSVFEERPERRSGPPAS [C8orf76], the protein stability index by setting is: (treatment: DMSO) 4.75 ± 0.18; (treatment: MLN4924 1 uM, 8 h) 4.69 ± 0.2.
SGKWTFQRDSKRWSRLEEFDVFSP [DLC1]: the protein stability index is 2.46 ± 0.28 (treatment: DMSO) and 2.53 ± 0.34 (treatment: MLN4924 1 uM, 8 h).
For EPMWSGSTMRRMALRPTAFSGCLN [EMID1], the protein stability index (treatment: DMSO) came out at 2.82 ± 0.27 and the protein stability index (treatment: MLN4924 1 uM, 8 h) turned out to be 2.79 ± 0.16.
On to ARLRPGLAVLGADERIFSLTRRLA [HAGHL], for which the protein stability index turned out to be 2.47 ± 0.14 (treatment: DMSO) and 2.78 ± 0.27 (treatment: MLN4924 1 uM, 8 h).
For ARRLTRFTGVITQGRNSLWLSDWV [CPXM2], in that order: 2.43 ± 0.24 and 2.38 ± 0.26.
For DDPSLLKEAKTKYPNYEFISDNSI [FUT8], in that order: 3.58 ± 0.36 and 4.04 ± 0.53.
Taken in the same sequence, the figures for PKRLRCWEEEEDHEKERPEHKSLE [FANCE] were 5.32 ± 0.17 and 5.37 ± 0.33.
Take QRDEQLRALQERLGQQQRDMRRDE [FBF1]: the protein stability index runs as follows: (treatment: DMSO) 5.39 ± 0.28; (treatment: MLN4924 1 uM, 8 h) 5.33 ± 0.31.
Take EIITQSPGRSSVASPRRLSNVSSS [MAP2]: the protein stability index runs as follows: (treatment: DMSO) 3.43 ± 0.18; (treatment: MLN4924 1 uM, 8 h) 3.66 ± 0.2.
Taken in the same sequence, the figures for GAVFNGITLLILAELLIFSVPIVY [RTN3] were 3.33 ± 0.037 and 2.9 ± 0.39.
Taken in the same sequence, the figures for VAQGPFDSFVVQYEDTNGQPQALL [TNXB] were 3.43 ± 0.44 and 3.16 ± 0.46.
Take GCTGDEAESRGHSKGWGRNYASII [MYCL]: the protein stability index is, setting by setting: (treatment: DMSO) 3.1 ± 0.13; (treatment: MLN4924 1 uM, 8 h) 3.2 ± 0.17.
Taken in the same sequence, the figures for HESSGNPPLRVIVKDALFCSCLSD [RHOBTB3] were 3.11 ± 0.25 and 3.24 ± 0.12.
Turning to EEPRPSRPRYKADVPDLQSVCSCT [KCNK9], the protein stability index reads like this: (treatment: DMSO) 4.62 ± 0.13; (treatment: MLN4924 1 uM, 8 h) 4.55 ± 0.19.
Taken in the same sequence, the figures for VELYRIKFKESFAEMNRGSNEWKT [COX4I1] were 2.23 ± 0.29 and 2.07 ± 0.45.
For YQYFVCPVEYRSDVNSFVTECEPS [CDS1], the protein stability index is, setting by setting: (treatment: DMSO) 2.35 ± 0.26; (treatment: MLN4924 1 uM, 8 h) 2.36 ± 0.37.
For the sequence KTPPSSCDSTNAAIAKQALKKPIK [KMT5A], the protein stability index came out at 5.11 ± 0.12 (treatment: DMSO) and 5.15 ± 0.3 (treatment: MLN4924 1 uM, 8 h).
Regarding RPDTGDDAAGHGFCYCAGSHKRKR [GMCL1], the protein stability index reads like this: (treatment: DMSO) 3.81 ± 0.74; (treatment: MLN4924 1 uM, 8 h) 4.47 ± 0.55.
Regarding RDKAKMRNLETQHKVLELTAENER [CEBPB], the protein stability index reads like this: (treatment: DMSO) 4.9 ± 0.2; (treatment: MLN4924 1 uM, 8 h) 5.24 ± 0.24.
VRDGFSATFEKILESELLRGTQYS [PSD2]: the protein stability index reads like this: (treatment: DMSO) 2.29 ± 0.35; (treatment: MLN4924 1 uM, 8 h) 2.31 ± 0.12.
Taken in the same sequence, the figures for LSELYEESSDLQMDVMPGEGDLPQ [EID1] were 5.42 ± 0.47 and 5.12 ± 0.47.
For GLSPSIDTLDHIRALDRLQEVPHE [PPP2CA], in that order: 4.91 ± 0.22 and 4.87 ± 0.14.
On to TQRQFTILNFNDLMSSAVPMTPED [AASDHPPT], for which the protein stability index is, setting by setting: (treatment: DMSO) 3.74 ± 0.14; (treatment: MLN4924 1 uM, 8 h) 3.38 ± 0.35.
For LPLPEQIHKASATIIEPAGESDNP [INTS4], in that order: 5.5 ± 0.26 and 5.49 ± 0.19.
With SSARIPKCPWMEGGEMSPQVETSI [INTS4], the protein stability index was 3.9 ± 0.14 (treatment: DMSO) and 4.12 ± 0.1 (treatment: MLN4924 1 uM, 8 h).
For LHVACELARPECLFLLLGHGASPG [ANKRD9], in that order: 2.53 ± 0.61 and 2.44 ± 0.45.
Taken in the same sequence, the figures for RAQKQCRKSSFAFYQAVRDLLPVW [ANKRD9] were 2.33 ± 0.49 and 1.98 ± 0.31.
Taken in the same sequence, the figures for LTPADKAEHMKRQRHPRLRPQSAQ [AUP1] were 4.36 ± 0.16 and 4.57 ± 0.28.
With MLQKPKSVKLRALRSPRKFGVAGR [DFFB], the protein stability index runs as follows: (treatment: DMSO) 2.94 ± 0.27; (treatment: MLN4924 1 uM, 8 h) 3.26 ± 0.35.
Taken in the same sequence, the figures for RFRFPSPILKVQYHPRDQNKVLVC [RBBP5] were 2.32 ± 0.11 and 2.32 ± 0.21.
For AAWCLHHICTNYNSVCSKFRKEIK [RHOBTB1], in that order: 2.23 ± 0.037 and 2.19 ± 0.28.
Consider DALTKLEQGEPLWTLEDEIHSPAH [ZNF649], for which the protein stability index came to 3.49 ± 0.35 (treatment: DMSO) and 3.65 ± 0.24 (treatment: MLN4924 1 uM, 8 h).
Turning to NTNTLKVPECRLAEDLGNLWENTR [SPOPL], the protein stability index runs as follows: (treatment: DMSO) 3.22 ± 0.26; (treatment: MLN4924 1 uM, 8 h) 3.41 ± 0.34.
Take LEDIYVMPEYRGQGIGSKIIKKVA [SAT2]: the protein stability index is 3.45 ± 0.37 (treatment: DMSO) and 3.79 ± 0.27 (treatment: MLN4924 1 uM, 8 h).
